Experimental data as given in the Immune Epitope Database (IEDB).

What was measured:
HLA-A*26:02 = test: IEDB peptide-MHC binding, purified MHC/competitive/fluorescence; filed as Kd, often an IC50 or EC50 that approximates it; ≥ and ≤ were set here for values at or beyond the usual limits of such assays; settings: source organism: Francisella tularensis subsp. tularensis FSC198
HLA-A*26:01 = test: as above
HLA-A*01:01 [1] = test: as above; settings: source organism: Francisella tularensis subsp. tularensis FSC198
HLA-A*26:03 = test: IEDB peptide-MHC binding, purified MHC/direct/fluorescence; filed as Kd, often an IC50 or EC50 that approximates it; ≥ and ≤ were set here for values at or beyond the usual limits of such assays
HLA-A*69:01 [2] = test: as above
HLA-B*18:01 [3] = test: as above
HLA-B*57:01 = test: as above
HLA-A*31:01 = test: as above
HLA-B*15:01 = test: as above
HLA-A*11:01 = test: as above
HLA-B*08:01 = test: as above; settings: source organism: Francisella tularensis subsp. holarctica LVS
HLA-A*68:02 = test: as above
HLA-B*07:02 = test: as above
HLA-B*39:01 [4] = test: as above; settings: source organism: Francisella tularensis subsp. tularensis FSC033
HLA-B*58:01 = test: as above
HLA-A*02:01 = test: as above
HLA-B*15:09 = test: as above; settings: source organism: Francisella tularensis subsp. tularensis FSC033
HLA-A*69:01 [5] = test: IEDB peptide-MHC binding, purified MHC/competitive/fluorescence; filed as Kd, often an IC50 or EC50 that approximates it; ≥ and ≤ were set here for values at or beyond the usual limits of such assays; settings: source organism: Orthohantavirus khabarovskense
HLA-B*18:01 [6] = test: as above; settings: source organism: Orthohantavirus khabarovskense
HLA-B*35:01 = test: as above; settings: source organism: Orthohantavirus khabarovskense
HLA-B*46:01 [7] = test: as above; settings: source organism: Orthohantavirus khabarovskense
HLA-B*39:01 [8] = test: as above; settings: source organism: Orthohantavirus khabarovskense
HLA-B*27:03 = test: as above; settings: source organism: Orthohantavirus khabarovskense
HLA-C*03:03 = test: IEDB peptide-MHC binding, purified MHC/direct/fluorescence; filed as Kd, often an IC50 or EC50 that approximates it; ≥ and ≤ were set here for values at or beyond the usual limits of such assays; settings: source organism: Orthohantavirus khabarovskense
HLA-A*02:03 = test: as above; settings: source organism: Choclo virus
HLA-C*08:02 = test: as above; settings: source organism: Orthohantavirus khabarovskense
HLA-A*02:19 = test: as above; settings: source organism: Choclo virus
HLA-A*01:01 [9] = test: as above
HLA-A*24:03 = test: as above; settings: source organism: Choclo virus
HLA-C*12:03 = test: as above; settings: source organism: Orthohantavirus khabarovskense
HLA-A*03:01 = test: as above
HLA-A*02:12 = test: as above; settings: source organism: Choclo virus
HLA-A*23:01 = test: as above; settings: source organism: Choclo virus
HLA-B*48:01 = test: as above; settings: source organism: Marburg virus - Musoke, Kenya, 1980
HLA-B*40:01 = test: as above; settings: source organism: Marburg virus - Musoke, Kenya, 1980
HLA-B*46:01 [10] = test: as above; settings: source organism: Marburg virus - Musoke, Kenya, 1980
HLA-B*27:05 = test: as above; settings: source organism: Marburg virus - Musoke, Kenya, 1980
HLA-B*08:02 = test: as above; settings: source organism: Orthomarburgvirus marburgense
HLA-B*15:17 = test: as above; settings: source organism: Marburg virus - Musoke, Kenya, 1980
HLA-B*15:42 = test: IEDB peptide-MHC binding, purified MHC/competitive/fluorescence; filed as Kd, often an IC50 or EC50 that approximates it; ≥ and ≤ were set here for values at or beyond the usual limits of such assays; settings: source organism: human gammaherpesvirus 4
HLA-B*45:06 = test: as above; settings: source organism: human gammaherpesvirus 4
HLA-A*68:23 = test: as above; settings: source organism: human gammaherpesvirus 4
HLA-C*14:02 = test: as above; settings: source organism: human gammaherpesvirus 4
HLA-B*83:01 = test: as above; settings: source organism: human gammaherpesvirus 4
[11] = source organism: Francisella tularensis subsp. tularensis FSC033
[12] = source organism: Francisella tularensis subsp. holarctica LVS
[13] = source organism: Orthohantavirus andesense
[14] = source organism: Marburg virus - Musoke, Kenya, 1980

Sequence: EFKQILTDF
- Kd (HLA-A*26:02): 0.457 µM
- Kd (HLA-A*26:01; source organism: Francisella tularensis subsp. tularensis FSC198): ≥ 20 µM
- Kd (HLA-A*01:01 [1]): ≥ 20 µM
- Kd (HLA-A*26:03; [11]): ≥ 20 µM
- Kd (HLA-A*69:01 [2]; [12]): ≥ 20 µM
- Kd (HLA-B*18:01 [3]; [11]): 1.03 µM
- Kd (HLA-B*57:01; [12]): ≥ 20 µM
- Kd (HLA-A*31:01; [12]): ≥ 20 µM
- Kd (HLA-B*15:01; [12]): ≥ 20 µM
- Kd (HLA-A*11:01; [12]): ≥ 20 µM
- Kd (HLA-B*08:01): 6 µM
- Kd (HLA-A*68:02; [12]): ≥ 20 µM
- Kd (HLA-B*07:02; [12]): ≥ 20 µM
- Kd (HLA-B*39:01 [4]): ≥ 20 µM
- Kd (HLA-B*58:01; [12]): ≥ 20 µM
- Kd (HLA-A*02:01; [12]): ≥ 20 µM
- Kd (HLA-B*15:09): ≥ 20 µM

Sequence: FSLPSSSSY
- Kd (HLA-A*69:01 [5]): ≥ 20 µM
- Kd (HLA-A*26:01; source organism: Orthohantavirus khabarovskense): ≥ 20 µM
- Kd (HLA-B*18:01 [6]): ≥ 20 µM
- Kd (HLA-B*35:01): ≤ 0.0001 µM
- Kd (HLA-B*46:01 [7]): 0.0707 µM
- Kd (HLA-B*39:01 [8]): ≥ 20 µM
- Kd (HLA-B*27:03): ≥ 20 µM
- Kd (HLA-C*03:03): 0.028 µM
- Kd (HLA-A*02:03): ≥ 20 µM
- Kd (HLA-C*08:02): ≥ 20 µM
- Kd (HLA-A*02:19): ≥ 20 µM
- Kd (HLA-A*01:01 [9]; [13]): 0.377 µM
- Kd (HLA-A*24:03): ≥ 20 µM
- Kd (HLA-C*12:03): 0.043 µM
- Kd (HLA-A*68:02; source organism: Choclo virus): ≥ 20 µM
- Kd (HLA-A*03:01; source organism: Choclo virus): ≥ 20 µM
- Kd (HLA-A*02:12): ≥ 20 µM
- Kd (HLA-B*58:01; [13]): 0.0218 µM
- Kd (HLA-A*23:01): ≥ 20 µM

Sequence: KLDFIRNTK
- Kd (HLA-A*26:03; source organism: Orthomarburgvirus marburgense): ≥ 20 µM
- Kd (HLA-A*69:01 [2]; [14]): ≥ 20 µM
- Kd (HLA-B*48:01): ≥ 20 µM
- Kd (HLA-B*40:01): ≥ 20 µM
- Kd (HLA-B*18:01 [3]; [14]): ≥ 20 µM
- Kd (HLA-A*01:01 [9]; [14]): ≥ 20 µM
- Kd (HLA-B*57:01; [14]): ≥ 20 µM
- Kd (HLA-B*46:01 [10]): ≥ 20 µM
- Kd (HLA-A*31:01; [14]): 2.16 µM
- Kd (HLA-B*15:01; [14]): ≥ 20 µM
- Kd (HLA-A*11:01; [14]): 0.604 µM
- Kd (HLA-B*27:05): ≥ 20 µM
- Kd (HLA-B*08:02): ≥ 20 µM
- Kd (HLA-A*68:02; [14]): ≥ 20 µM
- Kd (HLA-A*03:01; [14]): 0.0444 µM
- Kd (HLA-B*07:02; [14]): ≥ 20 µM
- Kd (HLA-B*58:01; [14]): ≥ 20 µM
- Kd (HLA-A*02:01; [14]): ≥ 20 µM
- Kd (HLA-B*15:17): ≥ 20 µM

Sequence: YTGAMTSKF
- Kd (HLA-B*15:42): ≥ 5 µM
- Kd (HLA-B*45:06): ≥ 5 µM
- Kd (HLA-A*68:23): 0.0715 µM
- Kd (HLA-C*14:02): 0.394 µM
- Kd (HLA-B*83:01): ≥ 5 µM
